Results published in publication PMC4943160.
Numbering of substitutions follows the chain as printed.

Key:
[1] = molecular target: T1, rCosRWT (Campylobacter jejuni NCTC 11168) (UniProt Q0PBF4); experiment: EMSA
T1 sequence: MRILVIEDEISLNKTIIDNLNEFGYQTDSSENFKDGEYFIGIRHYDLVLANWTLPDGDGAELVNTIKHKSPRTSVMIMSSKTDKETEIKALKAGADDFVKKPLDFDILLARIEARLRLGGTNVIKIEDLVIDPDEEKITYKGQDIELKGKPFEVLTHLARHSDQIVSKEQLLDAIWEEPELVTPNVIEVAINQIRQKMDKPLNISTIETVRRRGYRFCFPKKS

[2] = molecular target: T2, rCosRC218S C218S (Campylobacter jejuni NCTC 11168) (UniProt Q0PBF4); experiment: EMSA
T2 sequence: T1 sequence with C218S

“GCACAACACCTAAAGCTAAAATAGTATTTTTTTGAAATAATTTCATGGTTTTGCCTTGAAAAATTAAATTAAAAATTGTAATTTTTATTACAAAAATTTTTGGCTAATTATATCTTAATTTTGGTTAATAAAATTATTTTTTAAGCTTTGGAGCTATTGATTCCATTTAG (double strand) [11168 cmeABC promoter]” was tested. Which binding [1] did it give?
Its binding is “binds”.

With “AATCCTTGCTTGCATTTTCGAAAGTTGCCTTAGCCATTAAAGCTTGTCCGTAAGCTGAATCAACACTAGCTTTAAATTTATCTTGTTCTATAATAAATAATGTTTGTCCTTTTTTTACCTTATCTCCAGCTTTAAAAAGTTTATTTACTATTACGCCGCTAACTTGAGGTT (double strand) [cmeA internal fragment]” as the sequence, how does the binding [1] read?
The binding was “no binding”.

Which binding [2] does the source give for “GCACAACACCTAAAGCTAAAATAGTATTTTTTTGAAATAATTTCATGGTTTTGCCTTGAAAAATTAAATTAAAAATTGTAATATTTATTACAGAAATTTTTGGCTAATTATATCTTAATTTTGGTTAATAAAATTATTTTTTAAGCTTTGGAGCTATTGATTCCATTTAG (double strand) [81-176 cmeABC promoter]” here?
Its binding is “binds”.
